Where a chain is given by its changes, count along the chain named.

One may read the Kd as the free concentration of one partner at which half of the binding sites on the other are occupied at equilibrium, for simple one-to-one binding. As a reminder, the koff is the rate constant with which the complex falls apart. As a reminder, the kon is the rate constant with which the complex forms.

Experiment [1] concerns the target T1, recombinant human FGFR2 beta (IIIb)/Fc in which the Fc region was removed enzymatically (human, UniProt P21802-3 152-378, limits assumed).
T1 construct: also called rhFGFR2β-IIIb-cleaved; monomeric recombinant human FGFR2 beta IIIb
The experiment in a line: SPR (Biacore T100), antibody captured on anti-mouse IgG, FGFR protein as analyte, 37 C. As to the method:
(§1) Rabbit anti-mouse IgGs (GE Healthcare) were immobilized on carboxymethylated dextran CM4 sensor chips (GE Healthcare) by amine coupling, using a standard coupling protocol, according to the vendor's instructions (GE Healthcare). The analyses were performed at 25° C. and 37° C., using PBS containing 0.05% surfactant P20 (GE Healthcare) as running buffer.
(§2) The antibodies were captured in individual flow cells at a flow rate of 10 μl/min. Injection time was varied for each antibody to yield an Rmax between 30 and 60 RU. […] The dissociation phase was monitored for up to 900 seconds. The surface was then regenerated with two 60-second injections of 10 mM Glycine-HCl (pH 1.7), at a flow rate of 60 μl/minute. The FGFR protein concentration range tested was 50 to 3.125 nM (two-fold dilutions).
(§3) Kinetic parameters were determined using the kinetic function of the BlAevalutation software (GE Healthcare) with double reference subtraction. Kinetic parameters for each antibody, kₐ (association rate constant), kd (dissociation rate constant) and KD (equilibrium dissociation constant) were determined.

In experiment [2] the target is T2, recombinant human FGFR2 beta (IIIb)/Fc Chimera (human, UniProt P21802-3 152-378).
T2 construct: Bought from R&D Systems; the IIIb isoform applies; also called rhFGFR2β-IIIb-Fc; human FGFR2-IIIb; Fc part of the bought chimera not given
T2 sequence (P21802 other isoform, or with tags, fused parts or gaps mutant): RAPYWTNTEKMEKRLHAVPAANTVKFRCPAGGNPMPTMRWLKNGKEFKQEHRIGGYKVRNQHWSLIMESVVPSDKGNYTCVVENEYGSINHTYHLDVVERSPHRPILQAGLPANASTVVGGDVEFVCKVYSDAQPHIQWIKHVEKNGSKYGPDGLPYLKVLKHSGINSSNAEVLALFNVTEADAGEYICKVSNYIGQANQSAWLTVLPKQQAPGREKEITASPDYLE
The description is as above. The protocol: as §1, §2, §3

Experiment [3] has as its target T3, recombinant human FGFR1 beta (IIIb)/Fc Chimera (human, UniProt P11362-19 120-376).
T3 construct: Treated as one reagent; also called rhFGFR1β-IIIc-Fc; rhFGFR1β-IIIb-Fc; Fc part of the bought chimera not given
T3 sequence (looked up): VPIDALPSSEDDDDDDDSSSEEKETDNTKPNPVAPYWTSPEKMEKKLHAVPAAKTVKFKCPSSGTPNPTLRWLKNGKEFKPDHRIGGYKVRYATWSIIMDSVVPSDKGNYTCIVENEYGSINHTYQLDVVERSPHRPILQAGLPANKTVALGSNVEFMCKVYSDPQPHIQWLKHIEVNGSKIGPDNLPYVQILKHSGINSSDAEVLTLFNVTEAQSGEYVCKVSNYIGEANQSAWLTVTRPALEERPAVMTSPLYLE
In words: SPR (Biacore T100), antibody captured on anti-mouse IgG, FGFR protein as analyte, 25 C. As to the method: as §1, §2, §3

Experiment [4] addresses T1, recombinant human FGFR2 beta (IIIb)/Fc …. Described as above. As to the method: as §1, §2, §3
Experiment [5] concerns the target T2, recombinant human FGFR2 beta (IIIb)/Fc …. Described as above. As to the method: as §1, §2, §3
For experiment [6], the target named is T1, recombinant human FGFR2 beta (IIIb)/Fc …. The experiment in a line: SPR (Biacore T100), antibody captured on anti-human IgG Fc, rhFGFR2β-IIIb-cleaved as analyte, 37 C. As to the method:
(§4) Goat anti-human IgG Fc (Jackson ImmunoResearch, Catalog No. 109-005-098) was immobilized on carboxymethylated dextran CM4 sensor chips (Biacore) by amine coupling (Biacore) using a standard coupling protocol according to the vendor's instructions. The analyses were performed at 25° C. and 37° C. using PBS (Invitrogen) containing 0.05% surfactant P20 (Biacore) as running buffer.
(§5) Purified antibodies were captured in individual flow cells at a flow rate of 10 μl/minute. Injection time was varied for each antibody to yield an Rₘₐₓ between 30 and 90 RU. […] The dissociation phase was monitored for up to 900 seconds. The surface was then regenerated with two 60 second injections of glycine pH 2.25 (made from glycine pH 2.0 (Biacore) and pH 2.5 (Biacore)) at 30 μl/minute. Experiments were conducted using concentrations of rhFGFR2β-IIIb-cleaved between 20 and 1.25 nM (a two-fold serial dilution).
Background: In SPR one partner is held on a chip, and binding of the other changes the refractive index at the surface.

Experiment [7] has the same target. The experiment in a line: SPR (Biacore T100), antibody captured on anti-human IgG Fc, rhFGFR2β-IIIb-cleaved as analyte, 25 C. As to the method: as §4, §5
Kinetic parameters were determined using the kinetic function of the BlAevaluation software (Biacore) with double reference subtraction. Kinetic parameters for each antibody, kₐ (association rate constant), kd (dissociation rate constant) and KD (equilibrium dissociation constant) were determined.

T1 sequence (P21802 other isoform, or with tags, fused parts or gaps limits assumed): as the sequence (P21802 other isoform, or with tags, fused parts or gaps mutant) above

B1: antibody 4B9 (antibody)
heavy: EVQLQQSGTVLARPGASVKMSCKTSGYTFTSYWMHWVKQRPGQGLEWIGAIYPGNSDTDYSQKFKGKATLTAVTSATTAYMELSSLTNEDSAVYYCSKFDYWGQGTTLTVSSAKTTPPSVYPLAPGSAAQTNSMVTLGCLVKGYFPEPVTVTWNSGSLSSGVHTFPAVLQSDLYTLSSSVTVPSSTWPSQTVTCNVAHPASSTKVDKKIVPRDCGCKPCICTVPEVSSVFIFPPKPKDVLTITLTPKVTCVVVDISKDDPEVQFSWFVDDVEVHTAQTQPREEQFNSTFRSVSELPIMHQDWLNGKEFKCRVNSAAFPAPIEKTISKTKGRPKAPQVYTIPPPKEQMAKDKVSLTCMITDFFPEDITVEWQWNGQPAENYKNTQPIMDTDGSYFVYSKLNVQKSNWEAGNTFTCSVLHEGLHNHHTEKSLSHSPGK
light: QIVLTQSPALMSASPGEKVTMTCSASSSVNYMYWYQQKPRSSPKPWIYLTSNLASGVPARFSGRGSGTSYSLTISSMEAEDAATYYCQQWSSNPYTFGGGTKLEIKRADAAPTVSIFPPSSEQLTSGGASVVCFLNNFYPRDINVKWKIDGSERQNGVLNSWTDQDSKDSTYSMSSTLTLTKDEYERHNSYTCEATHKTSTSPIVKSFNRNEC
notes: Murine IgG1 kappa from hybridoma clone 4B9; also called GP369; monoclonal antibody 4B9
With B1, the Kd worked out at 1.2 nM in experiment [1], 2.96 nM in experiment [2], 4.2 nM in experiment [4] and 0.61 nM in experiment [5]. Also, the dissociation rate constant (koff) in experiment [1] amounted to 0.000223 s⁻¹; in experiment [5] it was 4.6e-05 s⁻¹. For the same molecule, the values for the kon in experiment [1] and in experiment [5] were 254000 M⁻¹ s⁻¹ and 94000 M⁻¹ s⁻¹, respectively. In addition, the binding result in experiment [3] was “no binding (tested: 50 to 3.125 nM tested)”.

B2: Hu4B9-82 (antibody)
heavy: not shown
light: EIVLTQSPATLSLSPGERATLSCRASSSVNYMYWYQQKPGQAPRPWIYLTSNRATGIPARFSGSGSGTDYTLTISSLEPEDFAVYYCQQWSSNPYTFGQGTKLEIKRTVAAPSVFIFPPSDEQLKSGTASVVCLLNNFYPREAKVQWKVDNALQSGNSQESVTEQDSKDSTYSLSSTLTLSKADYEKHKVYACEVTHQGLSSPVTKSFNRGEC
notes: Humanized IgG1 kappa
For the molecule B2, in experiment [6], the dissociation constant Kd was 0.93 nM, the koff was 0.00036 s⁻¹ and the kon was 400000 M⁻¹ s⁻¹. In addition, in experiment [7], the Kd worked out at 0.49 nM, the koff worked out at 9.4e-05 s⁻¹ and the association rate constant (kon) was 190000 M⁻¹ s⁻¹.

B3: Hu4B9-65 (antibody)
heavy: not shown
light: B2 light with I57V
notes: Humanized IgG1 kappa
As for B3, in experiment [6], the Kd came to 0.89 nM, the dissociation rate constant (koff) worked out at 0.00028 s⁻¹ and the on-rate (kon) was found to be 370000 M⁻¹ s⁻¹. For the same molecule, in experiment [7], the Kd was 0.26 nM, the koff is 6.5e-05 s⁻¹ and the kon was 240000 M⁻¹ s⁻¹.

B4: Hu4B9-83 (antibody)
heavy: not shown
light: B2 light with Y70F
notes: Humanized IgG1 kappa
For B4, in experiment [6], the Kd was determined as 0.92 nM, the koff stood at 0.00029 s⁻¹ and the kon was 320000 M⁻¹ s⁻¹. In experiment [7], the Kd was found to be 0.35 nM, the off-rate constant (koff) was determined as 8.9e-05 s⁻¹ and the kon was 260000 M⁻¹ s⁻¹.

For the origin of these results see patent publication US20130288305A1 (AVEO PHARMACEUTICALS, published 2013).
